According to article PMC10853775 (Nucleic Acids Research, 2023):

Target: the molecule itself
Experiment: crystal structure

B1: human nucleoside diphosphate kinase (NDPKb) (enzyme)
chain: ANLERTFIAIKPDGVQRGLVGEIIKRFEQKGFRLVAMKFLRASEEHLKQHYIDLKDRPFFPGLVKYMNSGPVVAMVWEGLNVVKTGRVMLGETNPADSKPGTIRGDFCIQVGRNIIHGSDSVKSAEKEISLWFKPEELVDYKSCAHDWVYE
stoichiometry N: 6
